Measurements from patent US20220372107A1.

Key:
BMP10 = target: T1, BMP10 (UniProt O95393)
T1 sequence (looked up): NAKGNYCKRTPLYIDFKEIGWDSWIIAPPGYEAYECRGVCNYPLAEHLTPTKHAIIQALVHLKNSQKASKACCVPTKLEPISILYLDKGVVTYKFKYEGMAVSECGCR

GDF11 = target: T2, GDF11 (UniProt O95390)
T2 sequence (looked up): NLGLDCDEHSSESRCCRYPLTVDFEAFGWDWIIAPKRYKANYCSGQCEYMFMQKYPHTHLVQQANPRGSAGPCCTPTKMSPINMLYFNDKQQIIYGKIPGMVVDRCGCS

TGFβ1 (human) = TGFβ1 (human) (UniProt P01137)
TGFβ2 (human) = target: T3, TGFβ2 (human) (UniProt P61812)
T3 sequence (looked up): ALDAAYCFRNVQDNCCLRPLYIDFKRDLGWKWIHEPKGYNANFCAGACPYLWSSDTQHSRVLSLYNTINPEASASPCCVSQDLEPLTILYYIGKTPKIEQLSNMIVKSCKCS

TGFβ3 (human) = target: T4, TGFβ3 (human) (UniProt P10600)
T4 sequence (looked up): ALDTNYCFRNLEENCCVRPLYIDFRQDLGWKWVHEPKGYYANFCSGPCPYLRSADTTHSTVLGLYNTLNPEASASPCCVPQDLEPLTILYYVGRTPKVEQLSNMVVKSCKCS

activin A = target: T5, activin A (UniProt P08476)
T5 sequence (looked up): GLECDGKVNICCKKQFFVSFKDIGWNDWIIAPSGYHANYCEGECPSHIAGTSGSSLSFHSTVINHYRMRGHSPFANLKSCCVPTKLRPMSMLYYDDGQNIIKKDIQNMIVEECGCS

activin B = target: T6, activin B (UniProt P09529)
T6 sequence (looked up): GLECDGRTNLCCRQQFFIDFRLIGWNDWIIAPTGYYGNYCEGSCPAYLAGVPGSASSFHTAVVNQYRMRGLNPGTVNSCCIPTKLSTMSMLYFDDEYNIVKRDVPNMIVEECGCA

Sequence of UniProt P01137 (P01137 279-390 limits assumed): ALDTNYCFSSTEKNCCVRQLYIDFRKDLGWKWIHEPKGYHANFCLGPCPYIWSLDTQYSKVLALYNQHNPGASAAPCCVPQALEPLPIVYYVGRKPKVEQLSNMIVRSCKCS

Row | IC50 (CAGA12 luciferase reporter gene assay) (BMP10) | IC50 (CAGA12 luciferase reporter gene assay) (GDF11) | IC50 (CAGA12 luciferase reporter gene assay) (TGFβ1 (human)) | IC50 (CAGA12 luciferase reporter gene assay) (TGFβ2 (human)) | IC50 (CAGA12 luciferase reporter gene assay) (TGFβ3 (human)) | IC50 (CAGA12 luciferase reporter gene assay) (activin A) | IC50 (CAGA12 luciferase reporter gene assay) (activin B) | Substance
1 | > 20 µg/mL | 18.1 nM | 0.21 nM | > 20 µg/mL | 0.39 nM | 1.28 nM | 1.16 nM | ActRIIA-Fc:TβRII-Fc heterodimer (Fc fusion)
2 | > 20 µg/mL | > 20 µg/mL | 0.017 nM | > 20 µg/mL | – | > 20 µg/mL | > 20 µg/mL | TβRII-Fc homodimer (Fc fusion)
